Measurements taken from a protein production outcome set (Wang et al. 2014).

Test: label from the status in PepcDB records

Sequence | protein production
MIEVLSVITSATVQDLGRWGYQRYGVPVSGVMDEVSARIANYLVGNPDNTPLIEFTAGGISIKFHTSAVFAVTGDATLYLNDTQLEPWESYWAKRGDVLTVRLSKGMYGYIAFSGGIECRKILGSCSTYLRAKFGGLLKPGDKLKLGYSLLTGKAGKRLPEELRPRFDKTVRVILGPNIEHFTPEGMRTFLTSEYTVTPESDRMGYRLEGPRIEHSEKGADIITEPIPRGAIQVPANGKPIIMLADAQTTGGYAKIATVIRVDIPMVVQTRPGEKLRFKAVSVNEAVQELRKRERI | not failed
MRSFLLGGVRPRDFWSMLKNLALRVDGEGAMDIGAWLRDQGLGQYEGTFRQNDIDPEVLRHLTAEDLIGVGVASVGHRRKLLAAIAALREVAEQPSGAAGFGATPVINPEAERRQLTVMFVDLVESTRLSSRLDPEEMGELLRGYQRAVAGAIARFEGHVAKYMGDGVLAYFGYPRAHEDEAERAVRAGLAAIDAVRKLQPPHGETLEARVGIATGLVVVGELIGEGAAREETVIGETPNLAARLQSVAEPGAVVVASATRQLIGGLFDLAELGFHPLKGFAASIPAWRVLGESSAESRFEAFHGASLTPLVGREHDIGLLLKRWEAVKKGKGRVVLLAGEPGIGKSRLVRALRRRLEGEPHTTVSHYCSPYHQTSPLYPVIRLLERAAGFAAEDPPEVKLSKLEALLTQSIEEVADAAPLLAALLSVPADDRYQPLELSPHRQKKRMLEVLVDQLIGLAARQPILAVYEDVHWADPTSLELLDLVVDRVQDSPVLVLITFRTEFLPPWTRYPHVTVLTLSRLSRRQGAEMVDRLTGRRALPTEVLDQIVAKTDGVPLFVEELTRAILETSLLKAEGDHYALARPLSAISIPATLHESLLARLDRLAPAREVMQVAAAIGREFSHELLVTAAPLQASEVEEALEDLIASGLVFRHGTPPQLTYSFKHALVRDAAYATLVRTKRQRLHAAIATAIEQRFPEMVQTQPELLAQHYAEAGRLEPAVNYWLRAGQAEIARSATTEAISHLTRGLELLEGLPDDAARLRKELELQVALSVALMTAKGWAAPEVGRANARARNLCERLGDKSRLFPVLYGDWVFHVVRAELEAGRKAGEELLRRAQEEREVSAEIVGNRIAGTGAFLRGEIANAREYLERSLALYDPQQHRALAFLFAQDPRVAGLSVLSLTLFALGYPEQAQARSNEALADARELSHSNTLGFALLYGCILSQLRGDWREARDRAGSLITLARAQGSPHFLGAGKILQGWTLGQTGELPAASTKVQEGLASWQMTGARFLVPYFLSLLARVETQSAGAKRALDLLTDALQRARETGERWFEAELHRLTGELMLQLPAFDRAEGEARLQHAVELARGQGADLWELRAATSLARLRIGQNRFGDVHHLLAPLCGKFAEGFATTDLQSAQRLLREAAGFDGAIKSSD | failed
MLARAALILLFFGLLGDSGAGQGRDGNALFDRGRYVAAAETYRAGLDALDDTTGSVYTGLQNNLGLALHRQERLGAARAALRKARRAATTEAERVRVLFNAATVAAEMNDRTKALDRYRTVLLLDPTHEAARFNYEYLKRQAGGGAGSDPPTLEPSPFAQKLKERADALVARTQYTTAAALLRDGMQKDSTVRAYRDFVTRIEEIAQIARSDP | failed
ELPSVEELTIILPEDIELKPLGMVSSIIEQLVIIESMTNLPPVNEETVIFKSDRQAAGKIFEIFGPVAHPFYVLRFNSSDHIESKGIKIKETMYFA | not failed
MLGKDYMLAIILVNCDDDLWGDHSLEVEAGLPPGWRKIHDAAGTYYWHVPSGSTQWQRPTWELGDAEDPGTGTEGIWGLRPPKGRSFSSLESSLDRSNSLSWYGGESYIQSMEPGAKCFAVRSLGWVEVPEEDLAPGKSSIAVNNCIQQLAQTRSRSQPPDGAWGEGQNMLMILKKDAMSLVNPLDHSLIHCQPLVHIRVWGVGSSKGRDRDFAFVASDKDSCMLKCHVFCCDVPAKAIASALHGLCAQILSERVEVSGDASCCSPDPISPEDLPRQVELLDAVSQAAQKYEALYMGTLPVTKAMGMDVLNEAIGTLTARGDRNAWVPTMLSVSDSLMTAHPIQAEASTEEEPLWQCPVRLVTFIGVGRDPHTFGLIADLGRQSFQCAAFWCQPHAGGLSEAVQAACMVQYQKCLVASAARGKAWGAQARARLRLKRTSSMDSPGGPLPLPLLKGGVGGAGATPRKRGVFSFLDAFRLKPSLLHMP | not failed
MSGMRVYLGADHAGYELKQRIIEHLKQTGHEPIDCGALRYDADDDYPAFCIAAATRTVADPGSLGIVLGGSGNGEQIAANKVPGARCALAWSVQTAALAREHNNAQLIGIGGRMHTVAEALAIVDAFVTTPWSKAQRHQRRIDILAEYERTHEAPPVPGAPA | not failed
MKYTYKQIWLINFPVMMSILMEQLINITDAVFLGHVGEIELGASALAGIYYLAIYMLGFGFSIGLQVMIARRNGEQHYKETGRTFFQGLYFLMVMAIMLCLLIHLVSPFILQQLITSDEIYQAVIRYLNWRSFGLLFSFPFLAFRAFLVGVTNTKLLSGAALTAVCINIPFNYLLIFKLDMGISGAAMASSIAEFGAFLILLLYMCKTVDKKKYGLSAVYDGRLLMKLLQLSVWSMLHAFISVAPWFLFFVAIEHLGKTELAISNITRSVSTLFFVIVNSFASTTGSLVSNLIGGGQGKELFPVCRKVLRLGYVVGLPLILTALWGNQWIIGFYTNNDYLVKLAFWPFIVMLLNYVFALPGYVYINAVTGTGKTRLAFVFQLVTILIYLIYLYLLSECFHASLTVYMTAEYLFVILLGIQSILYLKRKSKQNMYFCTFND | failed
MSENMVNLPDSLYEDYSKLKLTSPSNASSSSSAPPPRLSVVAHPTVEMIIQWVCDIHKPKSYMSDFALHNLAYHRNDFEFLPSLLWESKNTVYIMLQEVFEAYRHLAGHISLRLFPHPLNPLRVYNVFLLFQSMACHPDTSRQFLRAKMPNYFYPLMDTGLIDKSDECMRLAALGVIAHMLKASEDGAVNRYLMESGVVGFCVKPIEFGSTETKKVALYILDKIMSTDQGLYYCCVLADRFYVIDELLKKVLFYLSNMVRPPSSLFSLVTGCYVKLSQNSRARNGIRRYTPFLLFDGTFSRLYAEDPVAANNRIQLLQNLDN | failed
MNISSAQFIPGVHTVEEIEAEIHKNLHISKSCSYQKVPNSHKEFTKFCYEVYNEIKISDKEFKEKRAALDTLRLCLKRISPDAELVAFGSLESGLALKNSDMDLCVLMDSRVQSDTIALQFYEELIAEGFEGKFLQRARIPIIKLTSDTKNGFGASFQCDIGFNNRLAIHNTLLLSSYTKLDARLKPMVLLVKHWAKRKQINSPYFGTLSSYGYVLMVLYYLIHVIKPPVFPNLLLSPLKQEKIVDGFDVGFDDKLEDIPPSQNYSSLGSLLHGFFRFYAYKFEPREKVVTFRRPDGYLTKQEKGWTSATEHTGSADQIIKDRYILAIEDPFEISHNVGRTVSSSGLYRIRGEFMAASRLLNSRSYPIPYDSLFEEAPIPPRRQKKTDEQSNKKLLNETDGDNS | not failed
MDMYHTKILKAIESEDYISVRRRVLRQLVESLIYEGIITPARIEKEEQILFLIQGLDEDNKSVTYECYGRERITFGRISIDSLIVRVQDGKQEIQSVAQFLEEVFRVVNVEQTKLDSFIHELEQTIFKDTIAQYERCNKLKYTQKSYDELENHLIDGHPYHPSYKARIGFQYRDNFRYGYEFMRPIKLIWIAAHKKNATVGYENEVIYDKILKSEVGERKLEAYKERIHSMGCDPKQYLFIPVHPWQWENFIISNYAEDIQDKGIIYLGESADDYCAQQSMRTLRNVTNPKRPYVKVSLNILNTSTLRTLKPYSVASAPAISNWLSNVVSQDSYLRDESRVILLKEFSSVMYDTNKKATYGSLGCIWRESVHHYLGEQEDAVPFNGLYAKEKDGTPIIDAWLNKYGIENWLRLLIQKAIIPVIHLVVEHGIALESHGQNMILVHKEGLPVRIALKDFHEGLEFYRPFLKEMNKCPDFTKMHKTYANGKMNDFFEMDRIECLQEMVLDALFLFNVGELAFVLADKYEWKEESFWMIVVEEIENHFRKYPHLKDRFESIQLYTPTFYAEQLTKRRLYIDVESLVHEVPNPLYRARQLNIQKSVATGGNYANC | failed
RSFGLIIPDLENTSYARLAKLIEQNSRKAGYQILIGCSDDDPETEKKVAEALISRRIDALFVASGMPSANEYYLKLQNSGTPVIALDRPMDDEHFCCVISEDFDAAFELTESVLSPEIKTIGLIGALQDLQVSKERELGFRSACQKDDTAMTVGYGLHFSREEGKKVLDKWVQADSLPDAIVTTSYTLLEGVLDVMLEKPELMSQVRLATFGDNRLLDFLPVKINSLPQQFELIADSAMELALNASAKRYKPGVELIPRKIVKRQ | failed
MRAVIPYKKAGAKSRLSPVLSLQEREEFVELMLNQVISSLKGAGIEQVDILSPSVYGLEEMTEARVLLDEKDLNEALNRYLKEAEEPVLIVMADLPLLSPEHIKEISSTEKDVCIVPGKGGGTNALFIKNPSKYRVKYYGSSFLTHCSIATDSGQDFEIYDSFMAGTDIDEPEDLVELLIHGKGAAKDYIESKFRLEVKKGRVGLVPL | not failed
MKWILAVGLLSCSVAMAQQQSDILSVSASANAENAALAFDRNVKTMWTIPSQALKAEQWLMFTIQQPGDVCELDLQMQGINKNELKEVLDIFVTYDPMNLGTPVNYRIEGSDKQMKVKFTPKYGAHVKLNFKSGKLDKPFSLKEISVLVAEKVLTDSQGKVTDRRYMDASLPVEERVESLLAVMTPEDKMELIREGWGIPGIPHLYVPPITKVEAVHGFSYGSGATIFPQALAMGATWNRKLTEEVAMVIGDETVAANTKQAWSPVLDVAQDARWGRCEETFGEDPVLVSQIGGAWIKGYQSRGLFTTPKHFGGHGAPLGGRDSHDIGLSEREMREIHLVPFRHAIRNYDCQSLMMAYSDYMGVPVAKSKELLQQILRQEWGFNGFIVSDCGAIGNLTARKHYTAKDKIEAANQALAAGIATNCGDTYNNKEVIQAAKDGRINMEDLDNVCRTMLGTMFRNELFEKNPCKPLDWKKIYPGWNSDSHKEMARQAARESIVMLENKDNLLPLSKTLRTIAVLGPGADDLQPGDYTPKLLPGQLKSVLTGIKGAVGKQTKVLYEQGCDFTNPDETNIPKAVKAASQSDVVIMVLGDCSTSEATNDVRKTCGENNDWATLILPGKQQELLEAVCATGKPVILILQAGRPYDILKASEMCKAILVNWLPGQEGGPAMADVLFGDYNPAGRLPMTFPRHVGQLPLYYNFKTSGRRYEYVDMEYYPLYRFGFGLSYTSFEYSNLKIQEKANGNVEVQATVKNVGSRAGDEVAQLYVTDMYASVKTRVMELKDFARIHLQPGESKTVSFEMTPYDISLLNDRMDRVVEKGEFKIMVGGMSPDYVAKNEIKHSVGYSDNKKGVTGMLNYTHEFGANFDLAVSKVEENLVKNQKTVWVSVKNTGTLMDIGKVEMFVDGKKVGDAVHYELGAGEEKLIPFKLAKENKQPVAFTTKYKMVSM | failed
LDAILIADDEGCYVDVNAAACELFGVSREELLASTIADFAAPEFNFTQAWQQFREQEQMSGEFQLHRPNGTVRATEFAAVANFIPHRHLSIIRDVSDRQQAKANLQNSEQRLQLALSASS | failed
DIDTFYSKVHNIIGQLINAKNFFIAKYEKDSDTLSFSYYVDEKTSNLAKDFKPRKLSNRYSELVLRRRETVLLTYQEMMSLHLEGETKKPQDDIHSWLGVPLIYSGQLLGVMVLQSYYYKTTYNQQDAELLNFVSNHVSAAIKRRELAD | failed
MISGSATASHGRVLLPSQRERRPVSTGSNILRFRETVPRQFSLMMVTKATAKYMGTKMREEKLSEMIEEKVKEATEVCEAEEMSEECRVAWDEVEEVSQARADLRIKLKLLNQDPLESFCQENPETDECRIYED | failed
